Experimental data from the supplement of paper PMC10567573.

B1: TSN (parent)
chain: FLAAEQDIREEIRKVVQSLEQTAR
B2: PDS5B (parent)
chain: IYKKYALQSAAGKDAAKQIAWIKD

Variants of: B1
Assay: protein stability index of a GFP-peptide fusion (GPS, HEK-293T) (PSI 1-6); higher = more stable
Conditions: c terminus: a fixed tail appended
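Further: lentivirally expressed fusions sorted by FACS into six bins by GFP to DsRed ratio, PSI derived from sequencing read proportions per bin multiplied by bin number.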

Protein stability index: each site, then its substitutions
A23: Y 1.88, W 2.1
R24: W 1.69, T 2.08, N 2.21, G 2.18, F 2.07, P 2.28, H 1.47, E 2.13, Y 1.94, A 2.26, S 2.16, M 2.68, I 3.12, Q 1.74, C 1.82, L 2.49, V 1.7, K 1.7, D 2.4

Variants of: B2
Assay: as above
Conditions: c terminus: a fixed tail appended

Protein stability index of substitutions, site by site:
K17: G 2.35, E 3.42, L 2.07, F 1.32, C 2.04, D 3.27, A 2.48, H 2.89, I 1.79, M 1.38
Y2: I 1.77, G 3.38, M 4.12, N 2.98, L 2.34, R 2.38, V 2.27, Q 2.5, C 2.96, W 2.32, S 2.84, A 2.32, D 3.75, F 1.67, T 2.98, E 3.9, P 3.19, H 3.02, K 2.87
A11: P 2.27, K 2.5, E 2.43, H 1.75, V 2.29, I 1.73, Q 2.69, D 3.03, N 2.61, M 1.78, G 2.65, F 1.75, Y 1.8, T 2.15, C 1.58, W 1.82, R 1.75, S 2.3, L 1.8
L7: W 1.69, C 1.93, A 2.5, E 2.76, D 3.16, K 2.55, Y 2.04, P 2.92, V 2.32, G 2.42, M 2.32, R 2.3, S 2.68, Q 3.06, T 2.63, F 1.68, H 2.6, I 1.95, N 2.81
A16: T 2.46, I 2.47, R 2.12, G 2.92, N 2.39, Y 2.05, V 2.98, W 2.11, D 2.75, E 2.82, P 2.05, S 2.47, K 2.33, L 2.09, M 2.02, F 1.76, Q 2.35, C 2.16, H 2.29
I1: P 2.77, E 3.79, S 2.63, A 2.62, H 3.36, Q 3.23, K 2.75, M 2.08, N 2.41, T 3.11, D 3.71, W 2.14, R 2.5, V 2.61, Y 2.1, L 2.12, C 3.19, G 2.81, F 1.68
K4: E 2.68, D 3.24, W 1.35, R 2.25, A 2.13, M 1.95, Y 1.84, T 2.7, H 2.39, F 2.32, Q 2.6, C 1.61, I 2.44, L 1.75, N 2.68, V 1.55, G 2.61, S 2.23, P 2.71
A6: S 2.49, E 3.2, I 2.12, V 1.82, Y 1.52, G 2.88, T 2.39, H 1.97, M 1.8, L 1.86, D 2.32, R 2.55, W 2, C 1.85, N 2.18, Q 2.85, K 2.18, P 3.02, F 2.49
Q8: E 2.67, C 1.29, H 1.83
